Laboratory results from patent US20120164066A1 (University of Pennsylvania, published 2012).

Experiments:
[1] = biological target: T1, FcγIIIB Fc receptor (UniProt O75015 17-200); assay: Biacore
T1 construct: The form used in the Biacore experiments is not described; also called FcγIIIB receptor
Procedure: In some cases, antigen-binding protein can interact with an Fc receptor, which may facilitate cell-mediated cytotoxicity. Biacore experiments were conducted to determine whether the antigen-binding protein AHNP-CH2-mimic could bind to the FcγIIIB Fc receptor. […] The interaction between AFc, an antigen binding protein consisting of AHNP linked to the Fc region of an IgG1 antibody, and FcγIIIB was examined for comparative purposes. […] Since FcγIIIB is known to have low affinity to IgG1, the level of affinity observed for AHNP-CH2-mimic is very encouraging. Furthermore, a synthetic CH2-mimic peptide was also observed to compete with the monoclonal antibody 4D5 (IgG1) for binding to the FcγIIIB receptor when analyzed in Biacore experiments. Despite the observed competition for FcγIIIB, direct binding between the CH2-mimic peptide alone and FcγIIIB was not detected, possibly due to the inability for the interaction to be detected by Biacore.

[2] = biological target: T2, Her2/neu receptor expressed on cells (T6-17 cells; SKBR3 cells) (UniProt P04626 23-1255); assay: FACS on T6-17 cells, 45 min on ice, rabbit anti-His antibody and FITC anti-rabbit antibody
T2 construct: whole, on cells; also called p185 HER2/neu
Procedure: Experiments were conducted to determine whether the ALZ construct (SEQ ID NO. 5) could bind to T6-17 cells, which express the Her2/neu receptor. T6-17 cells were incubated with (dark line) or without (light line) ALZ for 45 min on ice and then with a rabbit anti-His antibody followed by a FITC-labeled anti-rabbit antibody. Other antigen-binding proteins were tested in this manner also.

T1 sequence (O75015 17-200): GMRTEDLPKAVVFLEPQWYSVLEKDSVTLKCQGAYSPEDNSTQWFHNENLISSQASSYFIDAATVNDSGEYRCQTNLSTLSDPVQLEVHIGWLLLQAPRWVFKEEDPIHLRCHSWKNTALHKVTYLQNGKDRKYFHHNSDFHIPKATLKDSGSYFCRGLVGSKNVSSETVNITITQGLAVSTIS

Row | Binder | binding result [1] | binding result [2]
1 | FPAPLAPGGLYLGG [synthetic CH2-mimic peptide] | no binding | 
2 | ALZ (designed binder, AHNP on the N-terminus of the leucine zipper domain of human FOXP3, with a His-tag; The LZ domain is said to form dimers and tetramers; also called ALZ construct) MAFCDGFYACYMDVGGGGGSMASDFLKHCQADHLLDEKGRAQCLLQREMVQSLEQQLVLEKEKLSAMQAHLAGKMALTKASSVASSDKLEHHHHHH |  | binds
